Test results taken from patent US20230340151A1 (Pfizer, published 2023).
Where a chain is given by its changes, count along the chain named. Where two headings read alike, the source gives them in different places.

Assays:
[1] = target: Human CD3 on naive human T cells (human, UniProt P07766 23-207); test: cell-based or functional assay
[2] = target: T1, Human CD3 epsilon-delta (human); test: SPR, recombinant human CD3
T1 construct: Single-chain epsilon-linker-delta with His6; also called huCD3
T1 chain: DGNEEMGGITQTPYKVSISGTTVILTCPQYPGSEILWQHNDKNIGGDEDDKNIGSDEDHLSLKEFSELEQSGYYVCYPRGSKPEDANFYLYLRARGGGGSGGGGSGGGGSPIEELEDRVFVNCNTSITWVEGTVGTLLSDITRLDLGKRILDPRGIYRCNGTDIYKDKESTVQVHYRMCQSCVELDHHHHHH

[3] = target: T2, Human GUCY2C ECD-muIgG2a (human); test: huCD3-huGUCY2C sandwich ELISA (CD3 coated)
T2 construct: also called human GUCY2c ECD-mouse IgG2a Fc fusion protein; huGUCY2c-mIgG2a
T2 sequence (chain, as listed by the source limits assumed): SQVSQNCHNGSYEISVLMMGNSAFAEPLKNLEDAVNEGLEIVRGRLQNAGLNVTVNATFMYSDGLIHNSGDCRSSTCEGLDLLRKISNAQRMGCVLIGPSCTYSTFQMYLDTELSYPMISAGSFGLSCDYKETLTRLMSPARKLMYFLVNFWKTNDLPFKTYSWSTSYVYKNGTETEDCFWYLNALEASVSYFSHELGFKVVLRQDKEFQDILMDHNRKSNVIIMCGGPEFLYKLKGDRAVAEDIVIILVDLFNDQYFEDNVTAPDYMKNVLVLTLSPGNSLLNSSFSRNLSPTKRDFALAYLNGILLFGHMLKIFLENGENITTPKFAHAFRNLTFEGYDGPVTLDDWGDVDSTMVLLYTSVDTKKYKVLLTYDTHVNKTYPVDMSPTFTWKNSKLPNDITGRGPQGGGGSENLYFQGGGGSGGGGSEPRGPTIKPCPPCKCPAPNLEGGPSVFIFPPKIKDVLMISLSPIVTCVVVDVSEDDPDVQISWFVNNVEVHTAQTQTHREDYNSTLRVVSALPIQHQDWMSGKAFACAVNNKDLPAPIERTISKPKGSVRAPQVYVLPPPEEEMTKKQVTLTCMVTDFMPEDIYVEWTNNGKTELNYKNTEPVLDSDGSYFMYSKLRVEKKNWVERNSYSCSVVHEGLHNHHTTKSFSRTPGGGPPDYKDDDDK

[4] = target: T3, Cynomolgus CD3 epsilon-delta (cynomolgus); test: SPR, printed anti-His capture, 25 C (Table 33D)
T3 chain: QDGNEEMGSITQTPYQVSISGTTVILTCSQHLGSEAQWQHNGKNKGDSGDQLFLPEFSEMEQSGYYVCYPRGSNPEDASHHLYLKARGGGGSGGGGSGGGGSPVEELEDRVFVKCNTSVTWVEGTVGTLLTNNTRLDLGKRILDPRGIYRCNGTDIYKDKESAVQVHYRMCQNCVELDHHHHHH

[5] = target: T4, Murine GUCY2C-ECD cleaved (mouse, UniProt Q3UWA6 20-433); test: SPR, anti-human IgG capture, 25 C
T4 sequence: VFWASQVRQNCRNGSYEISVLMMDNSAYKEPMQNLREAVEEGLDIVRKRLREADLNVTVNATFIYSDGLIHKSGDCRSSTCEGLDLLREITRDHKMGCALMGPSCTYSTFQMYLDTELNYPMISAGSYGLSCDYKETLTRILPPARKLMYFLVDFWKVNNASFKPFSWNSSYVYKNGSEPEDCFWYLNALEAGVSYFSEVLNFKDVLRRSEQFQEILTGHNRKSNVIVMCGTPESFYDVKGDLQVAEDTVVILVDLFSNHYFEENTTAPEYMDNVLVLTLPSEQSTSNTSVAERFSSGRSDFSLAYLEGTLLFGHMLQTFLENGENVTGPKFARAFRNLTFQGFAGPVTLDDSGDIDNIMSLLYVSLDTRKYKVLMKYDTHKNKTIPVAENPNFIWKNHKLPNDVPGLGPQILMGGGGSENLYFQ

[6] = target: T5, Human GUCY2C full length (SEQ ID NO: 224), recombinant protein (human, UniProt P25092 24-430, limits assumed); test: SPR, anti-human IgG capture, 25 C
T5 construct: also called huGUCY2C; biotinylated human GUCY2c
T5 sequence (P25092 24-430 F281L limits assumed): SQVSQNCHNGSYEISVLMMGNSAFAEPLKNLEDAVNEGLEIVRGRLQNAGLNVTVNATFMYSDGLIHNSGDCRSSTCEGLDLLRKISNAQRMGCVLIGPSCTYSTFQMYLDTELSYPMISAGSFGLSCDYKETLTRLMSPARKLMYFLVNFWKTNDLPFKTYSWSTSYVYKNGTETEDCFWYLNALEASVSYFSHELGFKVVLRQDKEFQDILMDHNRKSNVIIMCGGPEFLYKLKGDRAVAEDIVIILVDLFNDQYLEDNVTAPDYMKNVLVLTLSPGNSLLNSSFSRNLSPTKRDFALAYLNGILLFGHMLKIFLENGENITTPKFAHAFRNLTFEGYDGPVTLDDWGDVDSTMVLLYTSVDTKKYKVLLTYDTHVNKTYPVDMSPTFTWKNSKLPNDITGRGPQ

[7] = target: T6, Human GUCY2c on tumor cells (T84, HT55) (human, UniProt P25092 24-1073); test: cell-based or functional assay
T6 sequence (P25092 24-1073 limits assumed): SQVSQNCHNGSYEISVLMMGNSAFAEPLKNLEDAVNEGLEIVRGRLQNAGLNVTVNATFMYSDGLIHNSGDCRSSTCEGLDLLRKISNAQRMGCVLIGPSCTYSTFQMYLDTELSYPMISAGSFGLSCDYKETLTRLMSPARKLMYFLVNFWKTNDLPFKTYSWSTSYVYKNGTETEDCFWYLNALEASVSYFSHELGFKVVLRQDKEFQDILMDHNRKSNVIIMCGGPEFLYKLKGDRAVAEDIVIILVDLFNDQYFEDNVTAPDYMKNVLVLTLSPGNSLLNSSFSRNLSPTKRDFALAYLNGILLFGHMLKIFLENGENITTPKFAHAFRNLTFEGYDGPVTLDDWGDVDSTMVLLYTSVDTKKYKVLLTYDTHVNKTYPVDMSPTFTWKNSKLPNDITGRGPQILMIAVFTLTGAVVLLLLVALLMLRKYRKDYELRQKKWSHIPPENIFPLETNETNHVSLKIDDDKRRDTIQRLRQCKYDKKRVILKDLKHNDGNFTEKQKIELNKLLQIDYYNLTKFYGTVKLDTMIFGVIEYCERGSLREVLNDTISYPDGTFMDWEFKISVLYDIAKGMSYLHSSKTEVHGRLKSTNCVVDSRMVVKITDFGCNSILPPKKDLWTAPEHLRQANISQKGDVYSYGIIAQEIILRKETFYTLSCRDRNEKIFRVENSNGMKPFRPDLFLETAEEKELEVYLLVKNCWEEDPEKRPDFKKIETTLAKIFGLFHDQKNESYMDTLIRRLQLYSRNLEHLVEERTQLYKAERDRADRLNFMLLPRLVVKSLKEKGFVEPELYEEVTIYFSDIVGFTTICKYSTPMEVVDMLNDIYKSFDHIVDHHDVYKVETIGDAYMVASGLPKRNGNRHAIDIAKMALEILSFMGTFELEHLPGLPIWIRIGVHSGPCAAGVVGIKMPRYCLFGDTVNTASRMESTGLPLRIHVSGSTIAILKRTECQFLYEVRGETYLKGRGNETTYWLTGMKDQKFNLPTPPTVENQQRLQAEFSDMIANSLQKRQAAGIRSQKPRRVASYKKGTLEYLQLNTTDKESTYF

[8] = target: T1, Human CD3 epsilon-delta; test: SPR, anti-human IgG capture, 25 C
[9] = target: T5, Human GUCY2C full length (SEQ ID NO: …); test: SPR, GUCY2c directly immobilized, 25 C
[10] = target: T7, Cynomolgus GUCY2C-ECD Cleaved (cynomolgus, UniProt P25092 24-430 (human entry)); test: SPR, anti-human IgG capture, 25 C
T7 construct: also called CyGUCY2C
T7 chain: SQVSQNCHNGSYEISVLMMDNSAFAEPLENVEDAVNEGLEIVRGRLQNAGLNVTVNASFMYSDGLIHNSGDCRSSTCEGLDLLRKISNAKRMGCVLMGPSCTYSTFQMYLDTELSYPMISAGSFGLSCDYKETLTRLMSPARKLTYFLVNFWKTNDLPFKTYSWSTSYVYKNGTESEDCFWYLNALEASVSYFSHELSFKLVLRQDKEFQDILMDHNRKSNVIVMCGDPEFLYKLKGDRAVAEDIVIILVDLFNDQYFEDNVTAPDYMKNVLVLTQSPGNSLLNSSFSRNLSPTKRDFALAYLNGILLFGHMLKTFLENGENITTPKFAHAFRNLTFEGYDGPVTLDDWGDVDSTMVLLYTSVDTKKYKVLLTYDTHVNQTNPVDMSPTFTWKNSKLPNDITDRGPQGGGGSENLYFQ

[11] = target: T4, Murine GUCY2C-ECD cleaved; test: SPR, GUCY2c directly immobilized, 25 C
[12] = target: T6, Human GUCY2c on tumor cells (T84, HT55); test: cell-based or functional assay; remark: listed apart in the source

B1: GUCY2C-1679 (bispecific antibody)
chain 1: DIQLTQSPSSLSASVGDRVTITCRASESVDYYGSSLLQWYQQKPGKAPKLLIYAASKLASGVPSRFSGSGSGTDFTLTISSLQPEDFATYYCQQTRKAYTFGQGTKLEIKGGGSGGGGEVQLVESGGGLVQPGGSLRLSCAASGFTFSDYYMTWVRQAPGKGLEWVAFIRNQARGYTSDHNPSVKGRFTISRDNAKNSLYLQMNSLRAEDTAVYYCARDRPSYYVLDYWGQGTTVTVSSGCPPCPAPEAAGAPSVFLFPPKPKDTLMISRTPEVTCVVVDVSHEDPEVKFNWYVDGVEVHNAKTKPREEQYNSTYRVVSVLTVLHQDWLNGKEYKCKVSNKALPAPIEKTISKAKGQPREPQVCTLPPSREEMTKNQVSLWCLVKGFYPSDIAVEWESNGQPENNYKTTPPVLDSDGSFFLYSKLTVDKSRWQQGNVFSCSVMHEALHNHYTQKSLSLSPG
chain 2: DIQMTQSPSSLSASVGDRVTITCTSSQSLFNVRSGKNYLAWYQQKPGKAPKLLIYWASDRESGVPSRFSGSGSGTDFTLTISSLQPEDFATYYCKQSYDLFTFGGGTKVEIKGGGGSGGGGEVQLVESGGGLVQPGGSLRLSCAASGFTFSSYWMHWVRQAPGKGLEWIGEIKPSNELTNVHEKFKDRFTISVDKAKNSAYLQMNSLRAEDTAVYYCTRTITTTEGYWFFDVWGQGTLVTVSSGCPPCPAPEAAGAPSVFLFPPKPKDTLMISRTPEVTCVVVDVSHEDPEVKFNWYVDGVEVHNAKTKPREEQYNSTYRVVSVLTVLHQDWLNGKEYKCKVSNKALPAPIEKTISKAKGQPREPQVYTLPPCREEMTKNQVSLSCAVKGFYPSDIAVEWESNGQPENNYKTTPPVLDSDGSFFLVSKLTVDKSRWQQGNVFSCSVMHEALHNHYTQKSLSLSPG
In vitro Cytotoxicity (nM), T-cell retargeting assay [1]: 0.194 nM | Kd [2]: 72 nM

B2: GUCY2C-0250 (bispecific antibody)
chain 1: B1 chain 1 with S34T, L37M, K57N, L58V, A59E, A98V, Q172R
chain 2: DIQMTQSPSSLSASVGDRVTITCTSSQSLFNVRSRKNYLAWYQQKPGKAPKLLIYWASTRESGVPSRFSGSGSGTDFTLTISSLQPEDFATYYCKQSYDLFTFGGGTKVEIKGGGSGGGGEVQLVESGGGLVQPGGSLRLSCAASGYTFTSYWMHWVRQAPGKGLEWIGEIKPSNGLTNYIEKFKNRFTISVDKAKNSAYLQMNSLRAEDTAVYYCTRTITTTEGYWFFDVWGQGTLVTVSSGCPPCPAPEAAGAPSVFLFPPKPKDTLMISRTPEVTCVVVDVSHEDPEVKFNWYVDGVEVHNAKTKPREEQYNSTYRVVSVLTVLHQDWLNGKEYKCKVSNKALPAPIEKTISKAKGQPREPQVYTLPPCREEMTKNQVSLSCAVKGFYPSDIAVEWESNGQPENNYKTTPPVLDSDGSFFLVSKLTVDKSRWQQGNVFSCSVMHEALHNHYTQKSLSLSPG
EC50 [3]: 76.9 nM

B3: GUCY2C-1680 (bispecific antibody)
chain 1: B1 chain 1
chain 2: B1 chain 2 with Q27E
In vitro Cytotoxicity (nM), T-cell retargeting assay [1]: 0.385 nM | Kd [2]: 78.6 nM

B4: GUCY2C-1678 (bispecific antibody)
chain 1: B1 chain 1
chain 2: B1 chain 2 with S26D
In vitro Cytotoxicity (nM), T-cell retargeting assay [1]: 0.247 nM | Kd [2]: 63.5 nM

B5: GUCY2C-0240 (bispecific antibody)
chain 1: DIQLTQSPSSLSASVGDRVTITCRASESVDNYGISFMNWFQQKPGKAPKLLIYAASNPGSGVPSRFSGSGSGTDFTLTISSLQPEDFATYYCQQSKEVPYTFGQGTKLEIKGGGSGGGGEVQLVESGGGLVQPGGSLRLSCAASGFTFSDYYMTWVRQAPGKGLEWVAFIRNRARGYTSDHNPSVKGRFTISRDNAKNSLYLQMNSLRAEDTAVYYCARDRPSYYVLDYWGQGTTVTVSSGCPPCPAPEAAGAPSVFLFPPKPKDTLMISRTPEVTCVVVDVSHEDPEVKFNWYVDGVEVHNAKTKPREEQYNSTYRVVSVLTVLHQDWLNGKEYKCKVSNKALPAPIEKTISKAKGQPREPQVCTLPPSREEMTKNQVSLWCLVKGFYPSDIAVEWESNGQPENNYKTTPPVLDSDGSFFLYSKLTVDKSRWQQGNVFSCSVMHEALHNHYTQKSLSLSPG
chain 2: DIVMTQSPDSLAVSLGERATINCKSSQSLFNVRSRKNYLAWYQQKPGQPPKLLISWASTRESGVPDRFSGSGSGTDFTLTISSLQAEDVAVYYCKQSYDLFTFGSGTKLEIKGGGSGGGGEVQLVESGGGLVQPGGSLRLSCAASGYTFTTYWMQWVRQAPGKGLEWIGAIYPGDGMTTYTQKFKDRFTISADKAKNSAYLQMNSLRAEDTAVYYCVRKGMDYWGQGTLVTVSSGCPPCPAPEAAGAPSVFLFPPKPKDTLMISRTPEVTCVVVDVSHEDPEVKFNWYVDGVEVHNAKTKPREEQYNSTYRVVSVLTVLHQDWLNGKEYKCKVSNKALPAPIEKTISKAKGQPREPQVYTLPPCREEMTKNQVSLSCAVKGFYPSDIAVEWESNGQPENNYKTTPPVLDSDGSFFLVSKLTVDKSRWQQGNVFSCSVMHEALHNHYTQKSLSLSPG
Kd [4]: 4.71 nM | koff [4]: 0.00207 s⁻¹ | kon [4]: 440000 M⁻¹ s⁻¹ | EC50 [3]: 0.0799 nM | Kd [5]: 317 nM | koff [5]: 0.00336 s⁻¹ | kon [5]: 10600 M⁻¹ s⁻¹ | Kd [6]: 37.9 nM | koff [6]: 0.00364 s⁻¹ | kon [6]: 96200 M⁻¹ s⁻¹ | T84 tumor cell EC50 (T cell cytotoxicity, E:T 5:1) [7]: 0.53 nM | Kd [8]: 3.73 nM | koff [8]: 0.00129 s⁻¹ | kon [8]: 347000 M⁻¹ s⁻¹ | Kd [9]: 37.9 nM | koff [9]: 0.00364 s⁻¹ | kon [9]: 96200 M⁻¹ s⁻¹ | Kd [10]: 91.2 nM | koff [10]: 0.00234 s⁻¹ | kon [10]: 26100 M⁻¹ s⁻¹ | Kd [11]: 42.3 nM | koff [11]: 0.00515 s⁻¹ | kon [11]: 122000 M⁻¹ s⁻¹ | T84 tumor cell EC50 (T cell cytotoxicity, E:T 5:1) [12]: 0.53 nM
